Substrate in data set [1]: S=C=NCc1ccccc1
Nature of the data set: purified protein. It is filed as biochemical, Spodoptera littoralis. Conditions: 4 mM GSH (saturating), 100 mM potassium phosphate pH 6.5, 25 °C, 2.4% acetonitrile.

Substrate in data set [2]: C=CCN=C=S
Nature of the data set: purified protein. It is filed as biochemical, Spodoptera littoralis. Conditions: 4 mM GSH (saturating), 100 mM potassium phosphate pH 6.5, 25 °C, 2.4% acetonitrile.

From PMC12174363, “Multiple glutathione-S-transferases detoxify diverse glucosinolate-based defenses of Brassicales plants in a generalist lepidopteran herbivore (Spodoptera littoralis)” (Communications Biology, 2025) come the findings set out here.

B1: GSTE14 (GSTe14) (Spodoptera littoralis) (protein)
chain: MGVKLYVMDFSPPSRACMLTCEIFGIPFEKIPVDLFKGEHLAPNYLQKNPLHTIPVLEDGDLILYDSHAIMAYLADTYGKDESWYPKDVKKRALVNQKLFFNTAVIYRRLRNITYYVFQRGRKTLEQDWLDDIAEGYGFLEAFLSKTKYIAGDHITIADIAILSHLTNLEYILPIDAKKYPKTSAWLEDFKATPYAKKHNEEGAKALNDLLKKFLTS
notes: cytosolic epsilon class
On to B1, for which, in data set [1], the Km (usually the substrate concentration at which the rate is half of its maximum) came out at 185.37 ± 89.77 µM; the Vmax (as a rule, the top rate of the reaction or transport when substrate is in excess) worked out at 47.3 µmol/min/mg; the kcat (in general, the number of substrate molecules converted per active site and unit of time at saturation) was 19.8 ± 3.35 s⁻¹; the kcat/Km (usually the second-order rate constant that governs catalysis at low substrate concentration) was 107000 ± 37300 M⁻¹ s⁻¹. Further, in data set [2], the Km amounted to 124.10 ± 15.66 µM, the Vmax was 89.4 µmol/min/mg, the kcat was found to be 37.4 ± 1.85 s⁻¹ and the specificity constant (kcat/Km) is 302000 ± 14900 M⁻¹ s⁻¹.

B2: GSTS6 (GSTs6) (Spodoptera littoralis) (protein)
chain: MPKKLSYFNLNGLAEPIRYILHYTNQEFEDVRYDVYSWPDPKIKASLPYGQFPVYEEDGRVLTQSLAITKYVARGTDLVPTDPWDNAFIESVIFSIMDYWKNVVPTVREPDPAKYTELRNEIIEKNIPYYFSRFNKHLEDNGGFLNGKLSWGDFVFCGVIEASDMFLGIELSKDYPAVGSLVQHIRNLPGVKEYVKSIGPYTIDLARFKYKK
notes: cytosolic sigma class
With B2, in data set [1], the Km is 98.24 ± 21.15 µM, the Vmax stood at 52.7 µmol/min/mg, the kcat stood at 21.6 ± 1.46 s⁻¹ and the kcat/Km turned out to be 220000 ± 14900 M⁻¹ s⁻¹. In data set [2], the Km was determined as 567.11 ± 131.85 µM, the Vmax came to 39.3 µmol/min/mg, the kcat amounted to 16.1 ± 2.28 s⁻¹ and the kcat/Km is 28400 ± 4020 M⁻¹ s⁻¹.
